From US20100150834A1 (BURNHAM INSTITUTE, published 2010)
No end group written: not given here.

Legend:
[1] = molecular target: T1, EphB4 (receptor of Table 1) (Mus musculus (Mouse), UniProt P54761 16-539); experiment: inhibition of ephrin-B2 AP binding to EphB4 (panning receptor); non-biotinylated peptide
T1 sequence: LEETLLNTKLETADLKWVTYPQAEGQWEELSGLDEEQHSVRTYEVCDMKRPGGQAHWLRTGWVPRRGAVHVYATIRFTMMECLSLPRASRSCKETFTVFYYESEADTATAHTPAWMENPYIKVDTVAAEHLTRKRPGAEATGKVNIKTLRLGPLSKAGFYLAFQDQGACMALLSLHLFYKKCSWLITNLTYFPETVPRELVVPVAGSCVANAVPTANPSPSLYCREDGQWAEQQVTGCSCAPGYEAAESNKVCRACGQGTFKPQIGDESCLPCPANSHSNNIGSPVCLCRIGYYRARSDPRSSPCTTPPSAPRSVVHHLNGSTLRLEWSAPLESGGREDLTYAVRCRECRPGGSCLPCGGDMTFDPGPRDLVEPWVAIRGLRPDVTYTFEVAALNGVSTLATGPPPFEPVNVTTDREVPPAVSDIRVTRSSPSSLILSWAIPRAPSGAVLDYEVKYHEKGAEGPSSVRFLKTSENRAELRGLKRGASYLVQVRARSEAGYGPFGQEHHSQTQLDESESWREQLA

[2] = molecular target: EphB6 (receptor of Table 1); experiment: EphB receptor specificity panel (% binding)
[3] = molecular target: T1, EphB4 (receptor of Table 1); experiment: EphB receptor specificity panel (% binding)
[4] = molecular target: EphB2 (receptor of Table 1); experiment: EphB receptor specificity panel (% binding)
[5] = molecular target: EphB1 (receptor of Table 1); experiment: EphB receptor specificity panel (% binding)
[6] = molecular target: EphB3 (receptor of Table 1); experiment: EphB receptor specificity panel (% binding)
[7] = molecular target: EphB1 (receptor of Table 1); experiment: inhibition of ephrin-B2 AP binding to EphB1 (panning receptor)
Target sequence in this assay (Q8CBF3 18-540): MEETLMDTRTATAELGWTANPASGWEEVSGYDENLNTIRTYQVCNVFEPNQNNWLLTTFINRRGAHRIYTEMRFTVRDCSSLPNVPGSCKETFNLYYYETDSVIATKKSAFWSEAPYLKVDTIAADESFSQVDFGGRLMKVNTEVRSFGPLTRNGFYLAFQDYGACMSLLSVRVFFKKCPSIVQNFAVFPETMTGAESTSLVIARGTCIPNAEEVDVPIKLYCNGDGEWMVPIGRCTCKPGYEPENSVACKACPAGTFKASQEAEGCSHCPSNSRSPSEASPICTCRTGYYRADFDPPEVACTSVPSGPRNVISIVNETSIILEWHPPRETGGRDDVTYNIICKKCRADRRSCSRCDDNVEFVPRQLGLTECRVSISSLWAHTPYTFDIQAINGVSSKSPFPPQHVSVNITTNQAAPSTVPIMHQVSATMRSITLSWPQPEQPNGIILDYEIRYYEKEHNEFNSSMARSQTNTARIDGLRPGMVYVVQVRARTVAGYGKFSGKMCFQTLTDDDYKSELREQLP

[8] = molecular target: EphB2 (receptor of Table 1); experiment: inhibition of ephrin-B2 AP binding to EphB2 (panning receptor); biotinylated and non-biotinylated peptide gave the same result
[9] = molecular target: EphB1 (receptor of Table 1); experiment: inhibition of ephrin-B2 AP binding to EphB1 (panning receptor); biotinylated and non-biotinylated peptide gave the same result
Target sequence in this assay (Q8CBF3 18-540): as above

[10] = molecular target: T2, murine EphB4 ectodomain (murine, UniProt P54761 16-539); experiment: inhibition of murine ephrin-B2 AP binding to immobilised murine EphB4 ectodomain
T2 construct: extracellular domain; Coated on wells; also called immobilized EphB4 receptor ectodomain
T2 sequence (looked up): T1 sequence

[11] = molecular target: T3, murine EphB4-Alkaline Phosphatase (murine, UniProt P54761 16-539); experiment: competition ELISA: murine EphB4-AP binding to immobilised murine ephrin-B2-Fc
T3 construct: also called EphB4-AP; EphB4 AP; not shown: alkaline phosphatase
T3 sequence (looked up): T1 sequence

[12] = molecular target: T1, EphB4 (receptor of Table 1); experiment: inhibition of ephrin-B2 AP binding to EphB4 (panning receptor); biotinylated peptide
[13] = molecular target: T1, EphB4 (receptor of Table 1); experiment: inhibition of ephrin-B2 AP binding to EphB4 (panning receptor); limited by solubility

B1: TNYLFSPNGPIA peptide (SEQ ID NO:24) (peptide)
peptide: TNYLFSPNGPIA
notes: Panned on EphB4; non-biotinylated form
Question: What does the source list for B1?
Answer: IC50 [1]: 150 µM; % Binding [2]: 7%; % Binding [3]: 100%; % Binding [4]: 3%; % Binding [5]: 5%; % Binding [6]: 3%

B2: AHTFPYPHPKPH peptide (SEQ ID NO:3) (peptide)
peptide: AHTFPYPHPKPH
notes: Panned on EphB1
Question: Which results are given for B2?
Answer: % Binding [2]: 0%; % Binding [3]: 1%; % Binding [4]: 4%; % Binding [5]: 100%; % Binding [6]: 8%; IC50 [7]: ~150 µM

B3: SNEWIQPRLPQH peptide (SEQ ID NO:18) (peptide)
peptide: SNEWIQPRLPQH
notes: Panned on EphB2; Footnote e: biotinylated and non-biotinylated peptides gave the same IC50
Question: With B3 as the binder, how does the IC50 [8] read?
Answer: The IC50 was roughly 15 µM.

B4: EWLSPNLAPSVR peptide (SEQ ID NO:1) (peptide)
peptide: EWLSPNLAPSVR
notes: Panned on EphB1; Footnote e: biotinylated and non-biotinylated peptides gave the same IC50
Question: What does the source list for B4?
Answer: IC50 [9]: ~10 µM; % Binding [2]: 0%; % Binding [3]: 1%; % Binding [4]: 2%; % Binding [5]: 100%; % Binding [6]: 1%

B5: TNYL-RAW peptide TNYLFSPNGPIARAW (SEQ ID NO:39) (peptide)
peptide: TNYLFSPNGPIARAW
notes: Synthetic, not biotinylated
Question: Which results are given for B5?
Answer: IC50 [10]: ~40 nM; IC50 [11]: 16 nM

B6: biotinylated TNYLFSPNGPIA peptide (SEQ ID NO:24) (peptide)
peptide: TNYLFSPNGPIA
modifications: also: biotin, position not given here
notes: Footnote g: the ~50 µM value was obtained with the biotinylated peptide
Question: How did the IC50 [12] turn out when B6 was run?
Answer: Its IC50 is roughly 50 µM.

B7: TYFDFQAWSIRA peptide (SEQ ID NO:22) (peptide)
peptide: TYFDFQAWSIRA
notes: Panned on EphB4
Question: With B7 as the binder, how does the IC50 [13] read?
Answer: Its IC50 is greater than 50 µM.

Question: And the “% Binding” value [2]?
Answer: Its value is 30%.

Question: And the “% Binding” value [3]?
Answer: Its value is 100%.

Question: And the “% Binding” value [4]?
Answer: The value was 21%.

Question: And the “% Binding” value [5]?
Answer: The value was 10%.

Question: What about the “% Binding” value [6] of the same binder?
Answer: Its value is 18%.
